Measurements reported in patent publication US20200087373A1 (UNIVERSITY OF COPENHAGEN, published 2020).
Ends that are not written are not given here. * marks the point of attachment. C16 diacid = O=C(O)CCCCCCCCCCCCCCC(=O)*

Key:
human GIP receptor [1] = molecular target: T1, human GIP receptor (human, UniProt P48546 22-466); assay: cell-based or functional assay
T1 sequence (looked up): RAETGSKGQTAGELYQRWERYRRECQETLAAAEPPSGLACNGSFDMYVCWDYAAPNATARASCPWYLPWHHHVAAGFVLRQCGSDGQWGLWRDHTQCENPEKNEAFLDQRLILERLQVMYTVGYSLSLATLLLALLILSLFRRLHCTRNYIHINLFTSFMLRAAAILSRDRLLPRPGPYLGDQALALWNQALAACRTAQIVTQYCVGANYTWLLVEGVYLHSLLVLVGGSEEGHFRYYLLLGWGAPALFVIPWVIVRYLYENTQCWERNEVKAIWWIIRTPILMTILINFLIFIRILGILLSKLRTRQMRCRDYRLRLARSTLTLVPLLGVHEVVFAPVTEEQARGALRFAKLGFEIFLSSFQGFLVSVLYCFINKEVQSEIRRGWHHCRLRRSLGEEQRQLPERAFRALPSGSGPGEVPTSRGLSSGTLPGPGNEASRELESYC

human GIP receptor [2] = molecular target: T1, human GIP receptor; assay: 125I-hGIP(1-42) competition binding, COS-7 cells expressing human GIPR, with 2% HSA;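 note: nonspecific signal taken as radioligand bound to untransfected cells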
Description: (§1) After incubation, the cells were washed twice in ice-cold binding buffer (+/−2% HSA) and lysed using 200 mM NaOH with 1% SDS for 30 min. Nonspecific binding was determined as the binding of radioactive ligand to untransfected cells.

human GIP receptor [3] = molecular target: T1, human GIP receptor; assay: 125I-hGIP(1-42) competition binding, COS-7 cells expressing human GIPR, without HSA;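 note: nonspecific binding defined as radioligand bound to cells lacking the transfected receptor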
Description: as §1

human GIP receptor [4] = molecular target: T1, human GIP receptor; assay: ratio of Ki with 2% HSA to Ki without HSA, 125I-hGIP competition binding on hGIPR COS-7 cells;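 note: nonspecific binding was defined as radioligand signal on cells lacking the receptor transfection, with cell lysates measured after washes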
Description: as §1

B1: AT170 [hGIP(5-30)NH2[S8K]-C16diacid/8] (peptide)
peptide: TFIK(C16 diacid)DYSIAMDKIHQQDFVNWLLAQK-NH2
modifications: N-terminus assumed
SMILES: CC[C@H](C)[C@H](NC(=O)[C@H](CO)NC(=O)[C@H](Cc1ccc(O)cc1)NC(=O)[C@H](CC(=O)O)NC(=O)[C@H](CCCCNC(=O)CCCCCCCCCCCCCCC(=O)O)NC(=O)[C@@H](NC(=O)[C@H](Cc1ccccc1)NC(=O)[C@@H](N)[C@@H](C)O)[C@@H](C)CC)C(=O)N[C@@H](C)C(=O)N[C@@H](CCSC)C(=O)N[C@@H](CC(=O)O)C(=O)N[C@@H](CCCCN)C(=O)N[C@H](C(=O)N[C@@H](Cc1c[nH]cn1)C(=O)N[C@@H](CCC(N)=O)C(=O)N[C@@H](CCC(N)=O)C(=O)N[C@@H](CC(=O)O)C(=O)N[C@@H](Cc1ccccc1)C(=O)N[C@H](C(=O)N[C@@H](CC(N)=O)C(=O)N[C@@H](Cc1c[nH]c2ccccc12)C(=O)N[C@@H](CC(C)C)C(=O)N[C@@H](CC(C)C)C(=O)N[C@@H](C)C(=O)N[C@@H](CCC(N)=O)C(=O)N[C@@H](CCCCN)C(N)=O)C(C)C)[C@@H](C)CC
- cAMP accumulation Fold (fold change from GIP(5-30)NH2) (human GIP receptor [1]): 32.4 fold
- cAMP accumulation IC50 (human GIP receptor [1]): 891 nM
- cAMP accumulation logIC50 (human GIP receptor [1]): -6.05 log(M)
- Ki (human GIP receptor [2]): 1300 nM
- Ki (human GIP receptor [3]): 594 nM
- Fold (Ki + HSA / Ki - HSA) (human GIP receptor [4]): 2.2 fold

B2: AT175 [hGIP(5-30)NH2[A13K]-C16diacid/13] (peptide)
peptide: TFISDYSIK(C16 diacid)MDKIHQQDFVNWLLAQK-NH2
modifications: N-terminus assumed
SMILES: CC[C@H](C)[C@H](NC(=O)[C@H](CCCCN)NC(=O)[C@H](CC(=O)O)NC(=O)[C@H](CCSC)NC(=O)[C@H](CCCCNC(=O)CCCCCCCCCCCCCCC(=O)O)NC(=O)[C@@H](NC(=O)[C@H](CO)NC(=O)[C@H](Cc1ccc(O)cc1)NC(=O)[C@H](CC(=O)O)NC(=O)[C@H](CO)NC(=O)[C@@H](NC(=O)[C@H](Cc1ccccc1)NC(=O)[C@@H](N)[C@@H](C)O)[C@@H](C)CC)[C@@H](C)CC)C(=O)N[C@@H](Cc1c[nH]cn1)C(=O)N[C@@H](CCC(N)=O)C(=O)N[C@@H](CCC(N)=O)C(=O)N[C@@H](CC(=O)O)C(=O)N[C@@H](Cc1ccccc1)C(=O)N[C@H](C(=O)N[C@@H](CC(N)=O)C(=O)N[C@@H](Cc1c[nH]c2ccccc12)C(=O)N[C@@H](CC(C)C)C(=O)N[C@@H](CC(C)C)C(=O)N[C@@H](C)C(=O)N[C@@H](CCC(N)=O)C(=O)N[C@@H](CCCCN)C(N)=O)C(C)C
- cAMP accumulation Fold (fold change from GIP(5-30)NH2) (human GIP receptor [1]): 0.5 fold
- cAMP accumulation IC50 (human GIP receptor [1]): 14.1 nM
- cAMP accumulation logIC50 (human GIP receptor [1]): -7.85 log(M)
- Ki (human GIP receptor [2]): 498 nM
- Ki (human GIP receptor [3]): 53 nM
- Fold (Ki + HSA / Ki - HSA) (human GIP receptor [4]): 9.4 fold

B3: AT171 [hGIP(5-30)NH2[D9K]-C16diacid/9] (peptide)
peptide: TFISK(C16 diacid)YSIAMDKIHQQDFVNWLLAQK-NH2
modifications: N-terminus assumed
SMILES: CC[C@H](C)[C@H](NC(=O)[C@H](CO)NC(=O)[C@H](Cc1ccc(O)cc1)NC(=O)[C@H](CCCCNC(=O)CCCCCCCCCCCCCCC(=O)O)NC(=O)[C@H](CO)NC(=O)[C@@H](NC(=O)[C@H](Cc1ccccc1)NC(=O)[C@@H](N)[C@@H](C)O)[C@@H](C)CC)C(=O)N[C@@H](C)C(=O)N[C@@H](CCSC)C(=O)N[C@@H](CC(=O)O)C(=O)N[C@@H](CCCCN)C(=O)N[C@H](C(=O)N[C@@H](Cc1c[nH]cn1)C(=O)N[C@@H](CCC(N)=O)C(=O)N[C@@H](CCC(N)=O)C(=O)N[C@@H](CC(=O)O)C(=O)N[C@@H](Cc1ccccc1)C(=O)N[C@H](C(=O)N[C@@H](CC(N)=O)C(=O)N[C@@H](Cc1c[nH]c2ccccc12)C(=O)N[C@@H](CC(C)C)C(=O)N[C@@H](CC(C)C)C(=O)N[C@@H](C)C(=O)N[C@@H](CCC(N)=O)C(=O)N[C@@H](CCCCN)C(N)=O)C(C)C)[C@@H](C)CC
- cAMP accumulation Fold (fold change from GIP(5-30)NH2) (human GIP receptor [1]): 1.1 fold
- cAMP accumulation IC50 (human GIP receptor [1]): 31.6 nM
- cAMP accumulation logIC50 (human GIP receptor [1]): -7.5 log(M)
- Ki (human GIP receptor [2]): 500 nM
- Ki (human GIP receptor [3]): 79.1 nM
- Fold (Ki + HSA / Ki - HSA) (human GIP receptor [4]): 6.3 fold

B4: AT174 [hGIP(5-30)NH2[I12K]-C16diacid/12] (peptide)
peptide: TFISDYSK(C16 diacid)AMDKIHQQDFVNWLLAQK-NH2
modifications: N-terminus assumed
SMILES: CC[C@H](C)[C@H](NC(=O)[C@H](CCCCN)NC(=O)[C@H](CC(=O)O)NC(=O)[C@H](CCSC)NC(=O)[C@H](C)NC(=O)[C@H](CCCCNC(=O)CCCCCCCCCCCCCCC(=O)O)NC(=O)[C@H](CO)NC(=O)[C@H](Cc1ccc(O)cc1)NC(=O)[C@H](CC(=O)O)NC(=O)[C@H](CO)NC(=O)[C@@H](NC(=O)[C@H](Cc1ccccc1)NC(=O)[C@@H](N)[C@@H](C)O)[C@@H](C)CC)C(=O)N[C@@H](Cc1c[nH]cn1)C(=O)N[C@@H](CCC(N)=O)C(=O)N[C@@H](CCC(N)=O)C(=O)N[C@@H](CC(=O)O)C(=O)N[C@@H](Cc1ccccc1)C(=O)N[C@H](C(=O)N[C@@H](CC(N)=O)C(=O)N[C@@H](Cc1c[nH]c2ccccc12)C(=O)N[C@@H](CC(C)C)C(=O)N[C@@H](CC(C)C)C(=O)N[C@@H](C)C(=O)N[C@@H](CCC(N)=O)C(=O)N[C@@H](CCCCN)C(N)=O)C(C)C
- cAMP accumulation Fold (fold change from GIP(5-30)NH2) (human GIP receptor [1]): 0.9 fold
- cAMP accumulation IC50 (human GIP receptor [1]): 23.4 nM
- cAMP accumulation logIC50 (human GIP receptor [1]): -7.63 log(M)
- Ki (human GIP receptor [2]): 342 nM
- Ki (human GIP receptor [3]): 56.1 nM
- Fold (Ki + HSA / Ki - HSA) (human GIP receptor [4]): 6.1 fold

B5: AT173 [hGIP(5-30)NH2[S11K]-C16diacid/11] (peptide)
peptide: TFISDYK(C16 diacid)IAMDKIHQQDFVNWLLAQK-NH2
modifications: N-terminus assumed
SMILES: CC[C@H](C)[C@H](NC(=O)[C@H](CCCCNC(=O)CCCCCCCCCCCCCCC(=O)O)NC(=O)[C@H](Cc1ccc(O)cc1)NC(=O)[C@H](CC(=O)O)NC(=O)[C@H](CO)NC(=O)[C@@H](NC(=O)[C@H](Cc1ccccc1)NC(=O)[C@@H](N)[C@@H](C)O)[C@@H](C)CC)C(=O)N[C@@H](C)C(=O)N[C@@H](CCSC)C(=O)N[C@@H](CC(=O)O)C(=O)N[C@@H](CCCCN)C(=O)N[C@H](C(=O)N[C@@H](Cc1c[nH]cn1)C(=O)N[C@@H](CCC(N)=O)C(=O)N[C@@H](CCC(N)=O)C(=O)N[C@@H](CC(=O)O)C(=O)N[C@@H](Cc1ccccc1)C(=O)N[C@H](C(=O)N[C@@H](CC(N)=O)C(=O)N[C@@H](Cc1c[nH]c2ccccc12)C(=O)N[C@@H](CC(C)C)C(=O)N[C@@H](CC(C)C)C(=O)N[C@@H](C)C(=O)N[C@@H](CCC(N)=O)C(=O)N[C@@H](CCCCN)C(N)=O)C(C)C)[C@@H](C)CC
- cAMP accumulation Fold (fold change from GIP(5-30)NH2) (human GIP receptor [1]): 0.3 fold
- cAMP accumulation IC50 (human GIP receptor [1]): 9.1 nM
- cAMP accumulation logIC50 (human GIP receptor [1]): -8.04 log(M)
- Ki (human GIP receptor [2]): 58.7 nM
- Ki (human GIP receptor [3]): 6 nM
- Fold (Ki + HSA / Ki - HSA) (human GIP receptor [4]): 9.7 fold

B6: AT176 [hGIP(5-30)NH2[M14K]-C16diacid/14] (peptide)
peptide: TFISDYSIAK(C16 diacid)DKIHQQDFVNWLLAQK-NH2
modifications: N-terminus assumed
SMILES: CC[C@H](C)[C@H](NC(=O)[C@H](CO)NC(=O)[C@H](Cc1ccc(O)cc1)NC(=O)[C@H](CC(=O)O)NC(=O)[C@H](CO)NC(=O)[C@@H](NC(=O)[C@H](Cc1ccccc1)NC(=O)[C@@H](N)[C@@H](C)O)[C@@H](C)CC)C(=O)N[C@@H](C)C(=O)N[C@@H](CCCCNC(=O)CCCCCCCCCCCCCCC(=O)O)C(=O)N[C@@H](CC(=O)O)C(=O)N[C@@H](CCCCN)C(=O)N[C@H](C(=O)N[C@@H](Cc1c[nH]cn1)C(=O)N[C@@H](CCC(N)=O)C(=O)N[C@@H](CCC(N)=O)C(=O)N[C@@H](CC(=O)O)C(=O)N[C@@H](Cc1ccccc1)C(=O)N[C@H](C(=O)N[C@@H](CC(N)=O)C(=O)N[C@@H](Cc1c[nH]c2ccccc12)C(=O)N[C@@H](CC(C)C)C(=O)N[C@@H](CC(C)C)C(=O)N[C@@H](C)C(=O)N[C@@H](CCC(N)=O)C(=O)N[C@@H](CCCCN)C(N)=O)C(C)C)[C@@H](C)CC
- cAMP accumulation Fold (fold change from GIP(5-30)NH2) (human GIP receptor [1]): 3.8 fold
- cAMP accumulation IC50 (human GIP receptor [1]): 105 nM
- cAMP accumulation logIC50 (human GIP receptor [1]): -6.98 log(M)
- Ki (human GIP receptor [2]): 420 nM
- Ki (human GIP receptor [3]): 82.6 nM
- Fold (Ki + HSA / Ki - HSA) (human GIP receptor [4]): 5.1 fold

B7: AT172 [hGIP(5-30)NH2[Y10K]-C16diacid/10] (peptide)
peptide: TFISDK(C16 diacid)SIAMDKIHQQDFVNWLLAQK-NH2
modifications: N-terminus assumed
SMILES: CC[C@H](C)[C@H](NC(=O)[C@H](CO)NC(=O)[C@H](CCCCNC(=O)CCCCCCCCCCCCCCC(=O)O)NC(=O)[C@H](CC(=O)O)NC(=O)[C@H](CO)NC(=O)[C@@H](NC(=O)[C@H](Cc1ccccc1)NC(=O)[C@@H](N)[C@@H](C)O)[C@@H](C)CC)C(=O)N[C@@H](C)C(=O)N[C@@H](CCSC)C(=O)N[C@@H](CC(=O)O)C(=O)N[C@@H](CCCCN)C(=O)N[C@H](C(=O)N[C@@H](Cc1c[nH]cn1)C(=O)N[C@@H](CCC(N)=O)C(=O)N[C@@H](CCC(N)=O)C(=O)N[C@@H](CC(=O)O)C(=O)N[C@@H](Cc1ccccc1)C(=O)N[C@H](C(=O)N[C@@H](CC(N)=O)C(=O)N[C@@H](Cc1c[nH]c2ccccc12)C(=O)N[C@@H](CC(C)C)C(=O)N[C@@H](CC(C)C)C(=O)N[C@@H](C)C(=O)N[C@@H](CCC(N)=O)C(=O)N[C@@H](CCCCN)C(N)=O)C(C)C)[C@@H](C)CC
- cAMP accumulation Fold (fold change from GIP(5-30)NH2) (human GIP receptor [1]): 14.1 fold
- cAMP accumulation IC50 (human GIP receptor [1]): 389 nM
- cAMP accumulation logIC50 (human GIP receptor [1]): -6.41 log(M)
- Ki (human GIP receptor [2]): 807 nM
- Ki (human GIP receptor [3]): 281 nM
- Fold (Ki + HSA / Ki - HSA) (human GIP receptor [4]): 2.8 fold
